In patent US10369195B2, “Methods and compositions for preventing and treating damage to the heart” (MandalMed, Inc., priority 2016, dated 2019):
“Also recorded” adds a separate entry of the source.

Tests used:
[1] = test system: rat ischemia-reperfusion model of MI; assay: Serial echocardiography (ejection fraction, ESV, EDV) after ischemia-reperfusion MI; type: in vivo; conditions: for EF, benefit relative to PBS: out to 8 weeks post-MI, Gal-3C 600 μg/day days 4-10, losartan 8 mg/kg/day in drinking water 56 days
Procedure: Animal experiments to test the therapeutic potential of Gal-3C in the preservation of post-MI cardiac function were performed using surgical induction of MI in rodents and functional evaluation of treatment as previously described (61-66). To most accurately model cardiac damage experienced by MI patients, a well-established ischemia-reperfusion procedure was used in which the left anterior descending coronary artery (LAD) of rats was occluded for 25 min followed by restoration of blood flow (67). This standard MI model is more clinically relevant than permanent LAD ligation models because the reperfusion experienced after post-MI angioplasty not only limits the size of the infarct, but paradoxically introduces free radical damage, and is well validated as a model for post-MI heart failure experimental therapies (68).
Experiments were performed according to the UCSF guidelines for rodent survival surgery and the Guide for the Care and Use of Laboratory Animals of the US National Institutes of Health. Male Sprague-Dawley rats (age 10-12 weeks) were anesthetized with isoflurane (2%), received analgesics (buprenorphine (0.1 mg/kg), subcutaneous injection) pre- and post-operation, and underwent ischemia-reperfusion MI involving temporary (25 minutes) occlusion of the left anterior descending coronary artery (LAD) to produce regional moderate myocardial ischemia.
Briefly, rats were ventilated to a small animal volume-controlled ventilator (Harvard Rodent Ventilator, Model 683, South Natick, Mass.), and the heart was exposed via thoracotomy. Occlusion proceeds with a 7-0 nonabsorbable surgical suture passed under the LAD 2-3 mm from tip of the normally positioned left auricle and tied around a 1-mm section of PE-50 tubing, tightening with an artery clamp to temporarily occlude the LAD. After occlusion for 25 minutes, reperfusion was allowed to the formerly ischemic bed. The chest was then closed with removal of excess fluid and air from the chest cavity. All animals were monitored post-operation until they became ambulatory. The mortality during MI procedure was 12%.
The highest dose, 600 μg/rat/day, and the lowest dose, 200 μg/rat/day, were chosen for continued study, representing approximately 2- and 5.5-fold higher doses based on body surface area of rats than was used in the multiple myeloma study of Gal-3C in mice (70). Groups of rats (n=10) were treated with low (200 μg/day) and high (600 μg/day doses of Gal-3C or with PBS-lactose (vehicle control) administered over 0-6 days post-MI (“early window”; primed pumps were implanted several minutes before the MI procedure on day 0). These groups were designed to be sufficiently powered to detect potentially statistically significant improvement from Gal-3C treatment.
(§1) Pre-filled and primed mini-osmotic pumps were implanted a few minutes before surgical induction of MI and Gal-3C treatment continued for 7 days (denoted as “early window”) as in the pilot study described above. The effect of treatment on cardiac function was evaluated by serial echocardiography on day 0 pre-MI, 2 and 28 days post-MI, and LV pressure measurement at 28 days. For the early window, groups consisted of sham surgery with PBS, sham with 600 μg/day Gal-3C, MI with PBS, MI with 200 μg/day Gal-3C, and MI with 600 μg/day Gal-3C.
In a subsequent experiment, the high dose Gal-3C and the PBS control were administered by Alzet pump over a delayed delivery window of from 4 days until 10 days post-MI (denoted as “delayed window”) to rats that had been subjected to the same ischemia-reperfusion procedure as described in Example 2 above. Delayed treatment might better enable fibrotic repair of the infarct while preventing wall rupture. […]

[2] = test system: rat ischemia-reperfusion model of MI; assay: Intraventricular (LV) pressure / hemodynamic measurements after ischemia-reperfusion MI; type: in vivo; conditions: for LVEDP, benefit relative to PBS / LVSP, benefit relative to PBS / mean ABP, benefit relative to PBS: 8 weeks post-MI, Gal-3C 600 μg/day days 4-10, losartan 8 mg/kg/day in drinking water 56 days
Procedure: as §1
Serial echocardiography was performed at 2, 28, and 56 days (8 weeks) post-MI and terminal intraventricular pressure catheter measurements were obtained. The effect on cardiac function from losartan was compared to the effect of Gal-3C that included data from the 12 animals in the Gal-3C and the 12 animals in the vehicle-only group that were presented in FIG. 9 and FIG. 10. […] The results described herein indicate that treatment with Gal-3C post-MI would be more beneficial on recovery and preservation of heart function compared to treatment with losartan or another ARB alone.

[3] = test system: xenograft model of human multiple myeloma; conditions: mice; 30 μg/day by ALZET mini-osmotic pumps; cited from earlier work
[4] = test system: rat ischemia-reperfusion model of MI; assay: Pilot dose-finding study: hydroxyproline assay of collagen in the left ventricle after ischemia-reperfusion MI; type: in vivo; conditions: 100, 200, 400, 600 μg/day by osmotic pump from day 0 for 7 days; vs vehicle; n=2-3
Procedure: Animal experiments to test the therapeutic potential of Gal-3C in the preservation of post-MI cardiac function were performed using surgical induction of MI in rodents and functional evaluation of treatment as previously described (61-66). To most accurately model cardiac damage experienced by MI patients, a well-established ischemia-reperfusion procedure was used in which the left anterior descending coronary artery (LAD) of rats was occluded for 25 min followed by restoration of blood flow (67). […]
Briefly, rats were ventilated to a small animal volume-controlled ventilator (Harvard Rodent Ventilator, Model 683, South Natick, Mass.), and the heart was exposed via thoracotomy. […] All animals were monitored post-operation until they became ambulatory. […]
A pilot dose-finding study was performed to determine Gal-3C levels reducing fibrosis, with collagen levels in heart tissue extracts as surrogate endpoints. […] It was determined that an equivalent to the mouse dose for use in rats of 250-300 g/body weight based on m^2 of average body surface area of the two species as approximately 105 μg/day. […]

[5] = test system: rat ischemia-reperfusion model of MI; assay: Infarct size from Masson's trichrome-stained heart sections (volumetric, % area scarred); type: in vivo; conditions: 600 μg/day
Source text: (§2) After rats in the delayed treatment study were euthanized, hearts were harvested and sectioned for Masson's trichrome and Sirius red staining with quantitative image analysis to assess remodeling. Rather than using an optimized approach for infarct size measurement in permanent ligation rat models (64), it was confirmed that in the ischemia-reperfusion MI model, a volumetric infarct sizing approach (i.e., % area in the tissue sections that was scarred) would be more accurate. Using this approach for analysis of Masson's trichrome staining, it was shown that the infarct size was considerably (>2-fold) reduced in Gal-3C-treated (600 μg/day) rats, a difference that achieved significance with Gal-3C treatment in the delayed window (FIG. 8A).
As described in Example 3 above, rats were euthanized at 8 weeks post-MI, hearts were harvested and sectioned for Masson's trichrome and Sirius red staining with quantitative image analysis using a volumetric infarct sizing approach (i.e., % area in the tissue sections that was scarred) for analysis of Masson's trichrome staining to calculate the size of the primary infarct.

[6] = test system: rat ischemia-reperfusion model of MI; assay: Interstitial (non-scar) border zone fibrosis from Sirius red-stained heart sections; type: in vivo; conditions: delayed window, 600 μg/day
Source text: as §2
Quantitative histology of Sirius red staining for interstitial fibrosis was performed on tissue sections with the most scar from each heart as described above in Example 3 using ImageJ.

[7] = test system: Primary human cardiac fibroblasts; assay: TGFβ1-induced differentiation of primary cardiac fibroblasts to myofibroblasts (immunoblots of SMA and tensin 1); type: cell-based
Procedure: Galectin-3 was purified on lactosyl-sepharose from recombinant E. coli pelleted from 40 L of culture, collagenase digested, and then Gal-3C was isolated on lactosyl sepharose as previously described (41). Primary human cardiac fibroblasts (Cell Applications, San Diego, Calif.) were purchased and cultured as per the vendor's recommendations. 200,000 cells at passage 2-3 were cultured in 6-well plates until confluent, starved for 48 h and then induced to differentiate to myofibroblasts by treatment with […] TGFβ1 for 48-72 h. Varying concentrations of Gal-3C were also incubated with the cells. The cells were harvested, lysates prepared, and total protein quantified with a BCA assay (Pierce/Thermo). A total of […] protein was analyzed per condition by immunoblots using primary Abs against smooth muscle actin (SMA) and tensin 1 (Sigma-Aldrich).

[8] = Gal-3C 600 μg/day days 4-10 vs losartan 8 mg/kg/day 56 days, 15/group
[9] = delayed window (4-10 days post-MI), 600 μg/day, 28 days post-MI, vs vehicle
[10] = delayed window Gal-3C, 8 weeks (day 56) post-MI, expanded groups 15/group (FIG. 12)
[11] = delayed window, 600 μg/day, 8 weeks (day 56) post-MI, vs vehicle, n=12/group
[12] = early window (0-6 days post-MI), 200 and 600 μg/day, 28 days post-MI, vs PBS
[13] = delayed window, 600 μg/day, 8 weeks, vs controls, n=12/group
[14] = TGFβ1 5 or 15 mg/ml for 48-72 h, varying concentrations of Gal-3C

## CCCCc1nc(Cl)c(CO)n1Cc1ccc(-c2ccccc2-c2nn[nH]n2)cc1 [losartan, reference compound]
[1]; 15/group
  EF, benefit relative to PBS: no significant benefit
[2]; 15/group
  LVEDP, benefit relative to PBS: no significant benefit
  LVSP, benefit relative to PBS: no significant benefit
  mean ABP, benefit relative to PBS: no significant benefit

B1: Gal-3C: N-terminally truncated form of full length galectin-3, lacking the amino-terminal domain but retaining carbohydrate binding ability; 143 carboxy-terminal residues, SEQ ID NO: 3 (protein)
chain: GAPAGPLIVPYNLPLPGGVVPRMLITILGTVKPNANRIALDFQRGNDVAFHFNPRFNENNRRVIVCNTKLDNNWGREERQSVFPFESGKPFKIQVLVEPDHFKVAVNDAHLLQYNHRVKKLNEISKLGISGDIDITSASYTMI
[3]
  efficacy in xenograft model of human multiple myeloma: good efficacy
[1]; [8]
  EF, benefit relative to losartan: statistically significant benefit
  ESV, benefit relative to losartan: statistically significant benefit
[1]; [9]
  ESV: significant benefit; also recorded: statistically significant improvements
  LV EDV: no benefit
  LV ejection fraction: significant benefit; also recorded: statistically significant improvements
[1]; [10]
  EDV: beneficial effect
  ESV: beneficial effect
[1]; delayed window, 600 μg/day
  ejection fraction at 8 weeks compared to 4 weeks in treated animals: trend but not a statistically significant increase
[1]; [11]
  EDV: significant benefit
  ESV: beneficial effect
  ejection fraction: beneficial effect
[1]; [12]
  LV end diastolic volume (EDV): no benefit
  end systolic volume (ESV): profound benefit
  left ventricular ejection fraction: profound benefit
[1]; early window treatment, 2 days post-MI
  cardiac function by echocardiography (ejection fraction, ESV, EDV): no benefit observed
[1]; 15/group
  EF, benefit relative to PBS: statistically significant benefit
[4]
  reduction of collagen levels in the LV (hydroxyproline assay): 20-35%
[5]; 28 days post-MI, significant in the delayed window
  reduction of infarct size: > 2 fold
[5]; delayed window, 8 weeks post-MI
  infarct size vs PBS group: significantly smaller
[2]; 15/group
  LVEDP, benefit relative to PBS: statistically significant benefit
  LVSP, benefit relative to PBS: statistically significant benefit
  mean ABP, benefit relative to PBS: statistically significant benefit
[2]; [8]
  LVEDP, benefit relative to losartan: statistically significant benefit
  LVSP, benefit relative to losartan: statistically significant benefit
[2]; delayed window Gal-3C, 8 weeks, expanded groups 15/group (FIG. 13)
  dP/dt max and dP/dt min: did not reach significance
[2]; [13]
  LVEDP: reached significance
  LVSP: reached significance
  dP/dt max: did not reach significance
  dP/dt min: did not reach significance
  mean ABP: reached significance
[2]; delayed window, 600 μg/day, 28 days, vs vehicle
  all five hemodynamic parameters (mean ABP, LVSP, LVEDP, dP/dt max, dP/dt min): statistically significant improved
[2]; early window, 200 and 600 μg/day, 28 days, vs PBS
  intraventricular pressure measurement (mean ABP, LVSP, LVEDP, dP/dt max, dP/dt min): did not reach statistical significance
[2]; early window, 28 days
  hemodynamic parameters (mean ABP, dp/dt max and min), 600 μg/day compared to 200 μg/day: Trends to greater improvement
[6]; 8 weeks post-MI, n=12/group
  reduction of interstitial fibrosis relative to vehicle-only controls: roughly 50%
[6]; 8 weeks post-MI, n=12/group, P=0.0003 vs PBS-only
  interstitial fibrosis (Sirius red), mean +/- SD: 2.4+/−1.3%
[6]; 28 days post-MI
  reduction of interstitial fibrosis vs vehicle-only controls: ~65%
[7]; Gal-3C 4-20 μg/ml, TGF1β 15 μg/ml
  differentiation to myofibroblasts induced by TGF1β (decreased expression of tensin-1 and SMA): inhibited the differentiation to myofibroblasts
[7]; [14]
  expression of SMA (smooth muscle actin), immunoblot: inhibited expression
  expression of tensin 1, immunoblot: inhibited expression
